Assay results published in publication PMC4873334 (Neuron, 2016).

B1: Pcdh β6 EC1–4 (mouse clustered protocadherin β6, extracellular cadherin domains 1–4) (domain or fragment)
chain: EAIRYSIPEETESGYLVAHLAKDLGFRVGELATRRARIHHRGNKELLQLDVETGNLLLKEKPDREALCGATEPCVLHFQIILENPVQFFQTELQLTDINDHSPEFPDTEMLLKIQESTQPATVFLLKAAQDSDIGSNAVQNYTVSPNLHFHVVTLSRSDGRKYPELVLDRALDREEQPELTLILTALDGGAPPKSGTTTVRIEVVDINDNAPEFVQSLYSVEVPENSPLDALVVTVSARDLDAGIHGNVAYSLFQGGGGPQPFVIDEITGEIRLKGALDFEATSYYTMEIVATDSGGLSGKCTVAIQVLDVNDNAPKLTISSLTSSIPENAPEAVVAVFSVSDPDSGDNGRMVCSIQNELPFLLKPTFENYYTLAAEGPLDREIREEYNITIIVSDLGTPRLTTQHTITVQVVDIND
modifications: N- and O-linked glycans; O-mannose at positions 194 and 196 (α7 numbering) of EC2
B2: Pcdh β8 EC1–4 (mouse clustered protocadherin β8, extracellular cadherin domains 1–4) (domain or fragment)
chain: EAISYSMPEETESGYLVANLAQDLGLRVGELTTRGARIHHNGNKELLQLDAERGNLLLKEKPDREALCGATEPCVLHFQIILENPVQFFQTDLQFTDINDHFPEFPDTEMLLKIQEIAQPGTVFPLKAAQDPDIGSNAVQNYTVSPNLHFHVVTLSRSDDRKYPELVLDRALDREEQPELTLILTALDGGAPPKSGTTTVRIEVVDINDNAPQFLQSLYAVEVPENSPLNALVVTVSARDLDAGIHGNVAYSLFQGGGGPQPFVIDEITGEIRLKGALDFEATSYYTMEIVATDSGGLSGKCTVAIQVLDVNDNAPKLTISSLTSSIPENAPEAVVAVFSVSDPDSGDNGRMVCSIQNGLPFLLKPTFKNFYTLVTERPLDRESNAEYNITITVSDLGTPRLTTQHTITVQVSDINDN
modifications: N- and O-linked glycans; O-mannose at positions 194 and 196 (α7 numbering) of EC2 and on T199
B3: Pcdh α4 EC1–4 (mouse clustered protocadherin α4, extracellular cadherin domains 1–4) (domain or fragment)
chain: QIHYSIPEEAKHGTFVGRIAQDLGLELTELVPRLFRVASKDRGDLLEVNLQNGILFVNSRIDREELCGRSAECSIHLEVIVDRPLQVFHVEVEVRDINDNPPRFPTTQKNLFIAESRPLDTWFPLEGASDADIGINAVLTYRLSPNDYFSLEKPSNDERVKGLGLVLRKSLDREETPEIILVLTVTDGGKPELTGSVQLLITVLDANDNAPVFDRSLYTVKLPENVPNGTLVVKVNASDLDEGVNGDIMYSFSTDISPNVKYKFHIDPVSGEIIVKGYIDFEECKSYEILIEGIDKGQLPLSGHCKVIVQVEDINDNVPELEFKSLSLPIRENSPVGTVIALISVSDRDTGVNGQVTCSLTSHVPFKLVSTFKNYYSLVLDSALDRETTADYKVVVTARDGGSPSLWATASVSVEVADVND
modifications: N- and O-linked glycans; O-mannose on T409, S411 and S413 (EC4)
B4: Pcdh α7 EC1–5 (mouse clustered protocadherin α7, extracellular cadherin domains 1–5) (domain or fragment)
chain: QLHYSVPEEAKHGTFVGRIAQDLGLELTELVPRLFRVASKDRGDLLEVNLQNGILFVNSRIDREELCGRSAECSIHLEVIVDRPLQVFHVEVEVKDINDNPPMFPATQKALFILESRLLDSRFPLEGASDADVGSNALLTYRLSTNEHFSLDVPPNHEQVKPLGLVLRKPLDREEAAEIRLLLTATDGGKPELTGTVQLLITVLDVNDNAPVFDRSLYTVKLPENVPNGTLVIKVNASDLDEGVNGDVMYSFSSDVSSDIKSKFHMDTVSGEITVIGIIDFEESKAYKIPLEARDKGFPQLPGHCTILVEVVDANDNAPQLTVSSLSLPVSEDSQPGRVVTLISVFDRDSGANGQVTCSLTPHIPFKLVSTFKNYYSLVLDSALDRETIANYDVIVTARDGGSPSLWATASVSVEVADVNDNAPLFAQPEYTVFVKENNPPGAHIFTVSAMDADAQENALVSYSLVERRVGERLLSSYVSVHAESGKVFALQPLDHEELELLQFQVSARDAGVPALGSNVTLQVFVLDEND
modifications: N- and O-linked glycans; O-mannose at positions 194 and 196 (EC2), T409 (EC4) and S449 (EC5)

Legend:
[1] = target: Pcdhα7 EC1-5 (Mus musculus) (UniProt Q91Y13); conditions: cited from earlier work
AUC = target: the molecule itself; test: AUC

Row | Molecule | Kd [1] | Kd (AUC) | stoichiometry N (AUC)
1 | Pcdhα7 EC1-5 (from UniProt Q91Y13) | 2.91 µM |  | 
2 | B1 |  | 16.3 ± 2.08 µM | 2
3 | B2 |  | 24 ± 0.43 µM | 2
4 | B3 |  | 0.037 ± 0.0082 µM | 2
5 | B4 |  |  | 2
